Experimental data as given in publication PMC8659124, “Structural Analysis of Saccharomyces cerevisiae Dihydroorotase Reveals Molecular Insights into the Tetramerization Mechanism” (Molecules, 2021).
Where “and” joins values, the source holds several entries; their conditions need not be identical. Equal values may be shown once.

Assays:
[1] = target: Klebsiella pneumonia DHOase (Klebsiella pneumonia); test: cross-linking; glutaraldehyde 1%, individual DHOase 3 uM, 4 C, 20 min; Coomassie Blue-stained SDS-PAGE
[2] = target: DHOase domain of human CAD (human); test: as above
[3] = target: the molecule itself; test: as above
[4] = target: the molecule itself; test: cross-linking; glutaraldehyde 0.5%, DHOase 3 uM, 4 C, 20 min; Coomassie Blue-stained SDS-PAGE
[5] = target: the molecule itself; test: crystal structure; complex form I with malate, 16% PEG 4000, 100 mM imidazole-malate, pH 7.0, room temperature; PDB 6L0A, 1.79 A, space group P2(1), four molecules per asymmetric unit
[6] = target: the molecule itself; test: SEC; Superdex 200 prep grade, protein 10 mg/mL in 20 mM MES, 100 mM NaCl, pH 6.0, 0.5 mL/min; calibrated with proteins of known molecular weight

Klebsiella pneumonia DHOase (enzyme)
stoichiometry N [1]: 2

DHOase domain of human CAD (domain or fragment)
stoichiometry N [2]: 2

B1: Salmonella enterica serovar Typhimurium LT2 DHOase (enzyme, UniProt P06204 1-348, looked up)
chain: MTAPSQVLKIRRPDDWHVHLRDGDMLKTVVPYTSEIYGRAIVMPNLASPITTVDAAIAYRQRILDAVPAGHDFTPLMTCYLTDSLDADELERGFHEGVFTAAKLYPANATTNSSHGVTSVDAIMPVLERMEKLGIPLLVHGEVTHADVDIFDREARFIDTVMEPLRQRLTALKVVFEHITTKDAAQYVRDGNDYLAATITPQHLMFNRNDMLVGGIRPHLYCLPILKRNIHQQALRELVASGFTRAFLGTDSAPHSRHRKETSCGCAGCFNAPSALGSYAAVFEEMNALAHFEAFCSLNGPQFYGLPMNTGWVELVRDEQQIPGNIALADDSLVPFLAGETVRWSVKK
notes: Dihydroorotase of Salmonella enterica serovar Typhimurium LT2; also called StDHOase
stoichiometry N [3]: 2

B2: Saccharomyces cerevisiae dihydroorotase (enzyme)
chain: MVQEIDLGLTCDMHVHVREGAMCELVTPKIRDGGVSIAYIMPNLQPPITTLDRVIEYKKTLQKLAPKTTFLMSFYLSKDLTPDLIHEAAQQHAIRGVKCYPAGVTTNSAAGVDPNDFSAFYPIFKAMQEENLVLNLHGEKPSVHDGDKEPIHVLNAEEAFLPALKKLHNDFPNLKIILEHCTSESAIKTIEDINKNVKKATDVKVAATLTAHHLFLTIDDWAGNPVNFCKPVAKLPNDKKALVKAAVSGKPYFFFGSDSAPHPVQNKANYEGVCAGVYSQSFAIPYIAQVFEEQNALENLKGFVSDFGISFYEVKDSEVASSDKAILFKKEQVIPQVISDGKDISIIPFKAGDKLSWSVRWEPR
modifications: carbamylated lysine (Kcx) at 98
notes: Dihydroorotase of Saccharomyces cerevisiae, the monofunctional DHOase encoded by an independent gene; monomer about 40 kDa; Two Zn ions and malate in the active site of each subunit in the crystals; also called ScDHOase; DHOase
stoichiometry N [4]: 2 | stoichiometry N [5]: 4 | stoichiometry N [6]: ~2 and ~4.1
